Values belong to the binder of their own block, whether it stands above or below them. Square brackets hold non-standard residues; d marks the D form. GABA = NCCCC(=O)O
Experiments:
Assay in all cases: positional peptide library pulldown on immobilised Nb, LC-MS of supernatant; signal ratio to control GFP-Nb (1 = not captured, near 0 = captured)
BC2T P1H = target: T1, BC2T P1H
T1 construct: positional scanning library member
T1 peptide: Ac-HDRKAAVSHWQQ-NH2
In short: (§1)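 Unbound peptide left in supernatant after 1 h pulldown in PBS/0.01% CHAPS measured by reversed-phase LC-MS (8–30% eluent B gradient, 20 min).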

BC2T A5H = target: T2, BC2T A5H
T2 construct: positional scanning library member
T2 peptide: Ac-PDRKHAVSHWQQ-NH2
In short: as §1

BC2T R3D = target: T3, BC2T R3D
T3 construct: positional scanning library member
T3 peptide: Ac-PDDKAAVSHWQQ-NH2
In short: as §1

BC2T A6W = target: T4, BC2T A6W
T4 construct: positional scanning library member
T4 peptide: Ac-PDRKAWVSHWQQ-NH2
In short: as §1

BC2T A6P = target: T5, BC2T A6P
T5 construct: positional scanning library member
T5 peptide: Ac-PDRKAPVSHWQQ-NH2
In short: as §1

BC2T A5F = target: T6, BC2T A5F
T6 construct: positional scanning library member
T6 peptide: Ac-PDRKFAVSHWQQ-NH2
In short: as §1

BC2T A6R = target: T7, BC2T A6R
T7 construct: positional scanning library member
T7 peptide: Ac-PDRKARVSHWQQ-NH2
In short: as §1

BC2T A5Y = target: T8, BC2T A5Y
T8 construct: positional scanning library member
T8 peptide: Ac-PDRKYAVSHWQQ-NH2
In short: as §1

BC2T A6S = target: T9, BC2T A6S
T9 construct: positional scanning library member
T9 peptide: Ac-PDRKASVSHWQQ-NH2
In short: as §1

BC2T P1F = target: T10, BC2T P1F
T10 construct: positional scanning library member
T10 peptide: Ac-FDRKAAVSHWQQ-NH2
In short: as §1

BC2T A6K = target: T11, BC2T A6K
T11 construct: positional scanning library member
T11 peptide: Ac-PDRKAKVSHWQQ-NH2
In short: as §1

BC2T P1R = target: T12, BC2T P1R
T12 construct: positional scanning library member
T12 peptide: Ac-RDRKAAVSHWQQ-NH2
In short: as §1

BC2T A6C(Abu) = target: T13, BC2T A6C(Abu) (SMILES …)
T13 construct: positional scanning library member
T13 peptide: Ac-PDRKA[GABA]VSHWQQ-NH2
In short: as §1

BC2T D2W = target: T14, BC2T D2W
T14 construct: positional scanning library member
T14 peptide: Ac-PWRKAAVSHWQQ-NH2
In short: as §1

BC2T R3W = target: T15, BC2T R3W
T15 construct: positional scanning library member
T15 peptide: Ac-PDWKAAVSHWQQ-NH2
In short: as §1

BC2T K4Y = target: T16, BC2T K4Y
T16 construct: positional scanning library member
T16 peptide: Ac-PDRYAAVSHWQQ-NH2
In short: as §1

BC2T P1D = target: T17, BC2T P1D
T17 construct: positional scanning library member
T17 peptide: Ac-DDRKAAVSHWQQ-NH2
In short: as §1

BC2T D2F = target: T18, BC2T D2F
T18 construct: positional scanning library member
T18 peptide: Ac-PFRKAAVSHWQQ-NH2
In short: as §1

BC2T D2Q = target: T19, BC2T D2Q
T19 construct: positional scanning library member
T19 peptide: Ac-PQRKAAVSHWQQ-NH2
In short: as §1

BC2T Q12D = target: T20, BC2T Q12D
T20 construct: positional scanning library member
T20 peptide: Ac-PDRKAAVSHWQD-NH2
In short: as §1

BC2T S8E = target: T21, BC2T S8E
T21 construct: positional scanning library member
T21 peptide: Ac-PDRKAAVEHWQQ-NH2
In short: as §1

BC2T S8K = target: T22, BC2T S8K
T22 construct: positional scanning library member
T22 peptide: Ac-PDRKAAVKHWQQ-NH2
In short: as §1

ratio (BC2T P1H): 0.4
ratio (BC2T A5H): 0.2
ratio (BC2T R3D): 1
ratio (BC2T A6W): 1
ratio (BC2T A6P): 1.1
ratio (BC2T A5F): 0.1
ratio (BC2T A6R): 0.7
ratio (BC2T A5Y): 0.1
ratio (BC2T A6S): 0.6
ratio (BC2T P1F): 0.3
ratio (BC2T A6K): 0.9
ratio (BC2T P1R): 0.2
ratio (BC2T A6C(Abu)): 0.1
ratio (BC2T D2W): 0.1
ratio (BC2T R3W): 1.1
ratio (BC2T K4Y): 0.3
ratio (BC2T P1D): 0.8
ratio (BC2T D2F): 0.2
ratio (BC2T D2Q): 0.1
B1: BC2-NbR106E (VHH)
VHH: QVQLVESGGGLVQPGGSLTLSCTASGFTLDHYDIGWFRQAPGKEREGVSCINNSDDDTYYADSVKGRFTIFMDNAKDTVYLQMNSLKPEDTAIYYCAEARGCKRGEYEYDFWGQGTQVTVSS
notes: headlock mutant of BC2-Nb; immobilised on beads in this assay

B2: BC2 nanobody (VHH)
VHH: QVQLVESGGGLVQPGGSLTLSCTASGFTLDHYDIGWFRQAPGKEREGVSCINNSDDDTYYADSVKGRFTIFMDNAKDTVYLQMNSLKPEDTAIYYCAEARGCKRGRYEYDFWGQGTQVTVSS
notes: immobilised on beads in this assay; also called BC2-Nb; BC2 nanotrap (immobilised)
ratio (BC2T Q12D): 0.6
ratio (BC2T S8E): 0.7

ratio (BC2T S8K): 0.9
B3: BC2-NbR106S (VHH)
VHH: QVQLVESGGGLVQPGGSLTLSCTASGFTLDHYDIGWFRQAPGKEREGVSCINNSDDDTYYADSVKGRFTIFMDNAKDTVYLQMNSLKPEDTAIYYCAEARGCKRGSYEYDFWGQGTQVTVSS
notes: as for B1
